According to US9518995B2, “FKBP52-Tau interaction as a novel therapeutical target for treating the neurological disorders involving Tau dysfunction” (Institut National de la Sante et de la Recherche Medicale …, priority 2009, dated 2016):

B1: FKBP52: purified recombinant full length immunophilin FKBP52 (FK506-Binding Protein), cleaved from GST with thrombin (protein, UniProt Q02790 1-459, looked up)
chain: MTAEEMKATESGAQSAPLPMEGVDISPKQDEGVLKVIKREGTGTEMPMIGDRVFVHYTGWLLDGTKFDSSLDRKDKFSFDLGKGEVIKAWDIAIATMKVGEVCHITCKPEYAYGSAGSPPKIPPNATLVFEVELFEFKGEDLTEEEDGGIIRRIQTRGEGYAKPNEGAIVEVALEGYYKDKLFDQRELRFEIGEGENLDLPYGLERAIQRMEKGEHSIVYLKPSYAFGSVGKEKFQIPPNAELKYELHLKSFEKAKESWEMNSEEKLEQSTIVKERGTVYFKEGKYKQALLQYKKIVSWLEYESSFSNEEAQKAQALRLASHLNLAMCHLKLQAFSAAIESCNKALELDSNNEKGLFRRGEAHLAVNDFELARADFQKVLQLYPNNKAAKTQLAVCQQRIRRQLAREKKLYANMFERLAEEENKAKAEASSGDHPTDTEMKEEQKSNTAGSQSQVETEA
modifications: full-length

Legend:
H7C2 cells [1] = assay: FKBP52 induction in H7C2 cells (Western blot); type: cell-based, rat; conditions: after 5 days of Dox treatment
Description: Generation of H7C2 cells: The cDNA encoding rabbit FKBP52 was inserted into the HindIII and AccI restriction sites of the pTRE2 vector (Clontech) in order to give pTRE2-FKBP52. Transfection of 100 μg of pTR2-FKBP52 and 10 μg of pTK-hygromicin was carried out in a commercially available PC12 Tet-on cell line (Clontech) that expresses the reverse tetracycline controlled transactivator, using Lipofectamine™ (Invitrogen). Stably transfected cells were selected with 100 μg/ml hygromycin and screened individually. Cell culture: PC12 cells and H7C2 cells were grown in DMEM containing 10% (v/v) horse serum and 5% (v/v) FBS (Invitrogen) at 37° C. in 90% […]/10% CO2. The differentiated neuronal phenotype of cells grown on plastic dishes coated with 10 μg/ml poly(L)-lysine (Sigma), was induced by adding nerve growth factors (NGF) (Invitrogen) for 5 days. Primary cultures from cerebral cortex of embryonic day 17rat foetuses were carried out. Dissociated cells were plated (50,000 cells per ml) on glass coverslips coated with poly(L-ornithine) and cultured in a defined medium in 95% O2/5% CO2 at 37° C.

H7C2 cells [2] = assay: Quantitation of neurite outgrowth; type: cell-based, rat; conditions: 50 nM NGF and Dox, compared to H7C2 not treated with Dox
Description: Cell culture: PC12 cells and H7C2 cells were grown in DMEM containing 10% (v/v) horse serum and 5% (v/v) FBS (Invitrogen) at 37° C. in 90% O2/10% CO2. The differentiated neuronal phenotype of cells grown on plastic dishes coated with 10 μg/ml poly(L)-lysine (Sigma), was induced by adding nerve growth factors (NGF) (Invitrogen) for 5 days. Primary cultures from cerebral cortex of embryonic day 17rat foetuses were carried out. Dissociated cells were plated (50,000 cells per ml) on glass coverslips coated with poly(L-ornithine) and cultured in a defined medium in 95% O2/5% CO2 at 37° C. Quantitation of neurite outgrowth: Random field photographs of PC12 and H7C2 cells, in each of three wells, were analyzed with Neuron J software. The average neurite length was determined by measuring the longest neurites of at least 200 cells randomly selected.

[3] = molecular target: T1, HP-Tau (hyperphosphorylated recombinant hT40) (Homo sapiens, UniProt P10636); assay: Dot blot assay, FKBP52 captured by spotted HP-Tau; type: binding; conditions: 2.2 μg HP-Tau spotted; 0.5 μg FKBP52
T1 construct: made in house; host or cells: E. coli; then phosphorylated in vitro with adult rat brain cytosol in the presence of okadaic acid
Description: (§1) Phosphorylation and hyperphosphorylation of recombinant Tau: Rat brain extract was used as the source of kinase activity, as described (18). Briefly, recombinant hT40 was incubated with cytosol of adult rat brain, in the presence or absence of okadaic acid, to give HP-Tau (hyperphosphorylated-Tau) and P-Tau (phosphorylated-Tau), respectively.
(§2) Dot blot assay: 100 μl of buffer A containing different amounts of hT40 were applied to a nitrocellulose membrane, blocked with 5% non-fat milk in phosphate-buffered saline (PBS) containing 0.1% Tween 20 (PBS-T) at room temperature, washed with PBS-T and buffer A, followed by 2 h incubation at room temperature with 100 μl of buffer A containing […] recombinant FKBP52. The membranes were washed with buffer IP (50 mM Tris (pH 7.5)/150 mM NaCl/2 mM MgCl2/0.1% Brij97 (Sigma)/10% glycerol/protease inhibitors) and with PBS-T. After blocking with milk in PBS-T, the membranes were incubated with anti-FKBP52 761 antibody. […] Quantitation was performed with Quantity-one software using Chemidoc XRS fitted with a 16 bit CCD camera (Biorad).

[4] = molecular target: T2, P-Tau (phosphorylated recombinant hT40) (Homo sapiens, UniProt P10636); assay: Dot blot assay, FKBP52 captured by spotted P-Tau; type: binding; conditions: same amount (2.2 μg) P-Tau as bait; 0.5 μg FKBP52
T2 construct: made in house; host or cells: E. coli; then phosphorylated in vitro with adult rat brain cytosol without okadaic acid
Description: as §1, §2

recombinant Tau (hT40) = molecular target: T3, recombinant Tau (hT40) (Homo sapiens, UniProt P10636); assay: Dot blot assay, FKBP52 captured by spotted recombinant Tau; type: binding
T3 construct: made in house; host or cells: E. coli
Description: as §2

[5] = molecular target: T4, tubulin polymerization induced by recombinant human Tau isoforms (Homo sapiens, UniProt P10636); assay: Microtubule assembly assay (tubulin polymerization induced by recombinant Tau isoforms); type: biochemical, rat; conditions: tubulin 1 mg/ml, 1.7 μM Tau isoforms, 3.5 μM protein, turbidity at 345 nm
T4 construct: made in house; host or cells: Tau: E. coli; tubulin: adult Sprague-Dawley rat brain
Description: Preparation of Tubulin and microtubule assembly assay: Male adult Sprague-Dawley rats (body weight ˜250 g) were obtained from Janvier (Le Genest-St.-Isle, France). They were killed by decapitation, according to institutional guidelines, and whole brains were used immediately to prepare tubulin as described (9). Microtubule assembly assays were performed as in (9).
Protein purification and Overexpression of different Tau isoforms and FKBP52 protein: The six isoforms of human brain Tau were expressed in E. coli from clones hT40, hT39, hT37, hT34, hT24, hT23 and purified as described (28). Full length FKBP52 was affinity purified as in (23). For the Tubulin polymerization assay, FKBP52 bound to glutathione-Sepharose beads (GE Healthcare) were cleaved overnight at 4° C. with 2 units of thrombin (GE Healthcare) and dialyzed against buffer L (0.1 M Mes, 1 mM EGTA, 1 mM MgCL2, 0.1 mM EDTA) with 10% glycerol, and complemented before use to 1 mM GTP and 1 mM DTT and 10 μM PPACK (a potent irreversible inhibitor of thrombin) (Biomol).

[6] = molecular target: T5, recombinant Tau protein (longest isoform) (Homo sapiens, UniProt P10636); assay: Sedimentation assay of Tau polymerization in oxidative conditions; type: biochemical; conditions: Tau 0.5 mg/ml
T5 construct: made in house
Description: To investigate the effect of FKBP52 on Tau oligomerization we monitored by sedimentation assay the ability of recombinant Tau protein (here using the longest isoform) to polymerise in oxidative conditions in presence or absence of recombinant FKBP52. After dialysis of Tau (0.5 mg/ml) overnight at 4° C. in Tris 10 mM pH7.4 and centrifugation at 14000 rpm, quantitative western blotting was used to monitor the polymerization of Tau protein. […] This experiment means that Tau in oxidative conditions self polymerise and confirms, as already reported, the importance of cysteines in first step of Tau oligomerization process (Schweers et al 1995).

T5 sequence (P10636 1-441 isoform P10636-8): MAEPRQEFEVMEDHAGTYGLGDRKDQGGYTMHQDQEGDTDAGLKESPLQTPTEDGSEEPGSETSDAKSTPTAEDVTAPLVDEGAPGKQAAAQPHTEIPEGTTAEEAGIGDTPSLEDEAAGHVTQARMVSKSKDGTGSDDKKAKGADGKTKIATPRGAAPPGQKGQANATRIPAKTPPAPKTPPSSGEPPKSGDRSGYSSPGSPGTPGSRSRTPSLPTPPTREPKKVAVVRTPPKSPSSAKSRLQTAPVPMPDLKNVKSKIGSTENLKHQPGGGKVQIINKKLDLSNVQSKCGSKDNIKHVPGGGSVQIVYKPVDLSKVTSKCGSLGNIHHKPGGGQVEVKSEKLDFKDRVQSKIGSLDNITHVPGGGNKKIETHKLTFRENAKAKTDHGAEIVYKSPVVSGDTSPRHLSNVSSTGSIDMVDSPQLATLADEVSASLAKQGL
T3 sequence (P10636 1-441 isoform P10636-8): as above
T2 sequence (P10636 1-441 isoform P10636-8): as above
T1 sequence (P10636 1-441 isoform P10636-8): as above
T4 sequence (P10636 2-441 isoform P10636-8): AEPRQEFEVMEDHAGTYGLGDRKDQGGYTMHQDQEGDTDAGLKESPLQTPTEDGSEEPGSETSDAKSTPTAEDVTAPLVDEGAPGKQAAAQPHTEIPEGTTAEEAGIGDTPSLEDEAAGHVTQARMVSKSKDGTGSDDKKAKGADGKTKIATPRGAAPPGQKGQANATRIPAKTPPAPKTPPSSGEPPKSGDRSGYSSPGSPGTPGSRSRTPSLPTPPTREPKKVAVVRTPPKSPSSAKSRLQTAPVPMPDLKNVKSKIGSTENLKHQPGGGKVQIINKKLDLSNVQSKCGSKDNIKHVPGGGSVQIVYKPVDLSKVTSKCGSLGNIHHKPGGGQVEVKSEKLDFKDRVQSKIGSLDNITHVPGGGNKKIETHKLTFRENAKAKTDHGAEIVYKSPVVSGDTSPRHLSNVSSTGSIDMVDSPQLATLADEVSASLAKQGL

| Molecule | FKBP52 induction (H7C2 cells [1]) | decrease in neurite length (H7C2 cells [2]) | FKBP52 retained by HP-Tau [3] | FKBP52 captured by P-Tau [4] | FKBP52 retained by hT40 in the presence of cytosolic proteins (recombinant Tau (hT40); 2.2 μg hT40 with cytosol added just prior to spotting) | FKBP52 retained by hT40 (recombinant Tau (hT40); 2.2 μg non phosphorylated hT40) | retention by spotted Tau (recombinant Tau (hT40); different amounts of hT40 spotted, GST spot as control) | effect on microtubule formation induced by Tau [5] | Tau polymers in pellet ([6]; FKBP52 at 0.1 or 0.25 mg/ml) | Tau polymers in pellet ([6]; equimolecular or two times quantities of FKBP52 versus Tau) | Tau in pellet fraction ([6]; oxidative medium, equimolecular coincubation) |
| --- | --- | --- | --- | --- | --- | --- | --- | --- | --- | --- | --- |
| C[C@H]1c2cccc(O)c2C(=O)C2=C(O)[C@]3(O)C(=O)C(C(N)=O)=C(O)[C@@H](N(C)C)[C@@H]3[C@@H](O)[C@@H]21 [Dox, doxycycline] | about 4 fold | 40% | – | – | – | – | – | – | – | – | – |
| B1 | – | – | 73% | 41% | 6.6% | 3.5% | retained in a dose dependent manner | formation of microtubules was prevented | increasing Tau polymers in pellet | prevent the presence of pelletable polymers of Tau | no detectable presence of Tau in pellet fraction |
